# No end group written: not given here.
# Target: T1, His-tagged P3028 (human, also: His-tag, terminus and sequence not given here)
# T1 construct: used in solution in the PEPSCAN (rampo) ELISA; also called PGE73; His-tag-P3028; not shown: His tag
# T1 peptide: VFDEFKPLVEEPQNLIK
# Assay: PEPSCAN ELISA (rampo)
Binder,rampo score relative to the P28R control sample,binding result
KKLDTFFVKLSLATER [SEQ ID NO 361],≥ 98 % of P28R control,
KKLDTFFVKLSLCTER [SEQ ID NO 362],≥ 98 % of P28R control,
KKLDTFFVKLSLGTER [SEQ ID NO 363],≥ 98 % of P28R control,
KKLDTFFVKLSLHTER [SEQ ID NO 364],≥ 98 % of P28R control,
KKLDTFFVKLSLITER [SEQ ID NO 365],≥ 98 % of P28R control,
KKLDTFFVKLSLLTER [SEQ ID NO 366],≥ 98 % of P28R control,
KKLDTFFVKLSLMTER [SEQ ID NO 367],≥ 98 % of P28R control,
KKLDTFFVKLSLNTER [SEQ ID NO 368],≥ 98 % of P28R control,
KKLDTFFVKLSLPTER [SEQ ID NO 369],≥ 98 % of P28R control,
KKLDTFFVKLSLQTER [SEQ ID NO 370],≥ 98 % of P28R control,
KKLDTFFVKLSLRTER [SEQ ID NO 371],≥ 98 % of P28R control,
KKLDTFFVKLSLSTER [SEQ ID NO 372],≥ 98 % of P28R control,
KKLDTFFVKLSLTTER [SEQ ID NO 373],≥ 98 % of P28R control,
KKLDTFFVKLSLVTER [SEQ ID NO 374],≥ 98 % of P28R control,
KKLDTFFVKLSLWTER [SEQ ID NO 375],≥ 98 % of P28R control,
KKLDTFFVKLSLFFER [SEQ ID NO 376],≥ 98 % of P28R control,
KKLDTFFVKLSLFGER [SEQ ID NO 377],≥ 98 % of P28R control,
KKLDTFFVKLSLFHER [SEQ ID NO 378],≥ 98 % of P28R control,
KKLDTFFVKLSLFIER [SEQ ID NO 379],≥ 98 % of P28R control,
KKLDTFFVKLSLFLER [SEQ ID NO 380],≥ 98 % of P28R control,
KKLDTFFVKLSLFMER [SEQ ID NO 381],≥ 98 % of P28R control,
KKLDTFFVKLSLFNER [SEQ ID NO 382],≥ 98 % of P28R control,
KKLDTFFVKLSLFPER [SEQ ID NO 383],≥ 98 % of P28R control,
KKLDTFFVKLSLFSER [SEQ ID NO 384],≥ 98 % of P28R control,

Binder,rampo score relative to the P28R control sample,binding result
KKLDTFFVKLSLFVER [SEQ ID NO 385],≥ 98 % of P28R control,
KKLDTFFVKLSLFWER [SEQ ID NO 386],≥ 98 % of P28R control,
KKLDTFFVKLSLFTDR [SEQ ID NO 387],≥ 98 % of P28R control,
KKLDTFFVKLSLFTEF [SEQ ID NO 388],≥ 98 % of P28R control,
KKLDTFFVKLSLFTEK [SEQ ID NO 389],≥ 98 % of P28R control,
KKLDTFFVKLSLFTEN [SEQ ID NO 390],≥ 98 % of P28R control,
KKLDTFFVKLSLFTET [SEQ ID NO 392],≥ 98 % of P28R control,
KKLDTFFVKLSLFTEY [SEQ ID NO 393],≥ 98 % of P28R control,
KKLDTFFVKLSLFTER [SEQ ID NO 391],≥ 98 % of P28R control,
KKLTFFVKLSLFTER [SEQ ID NO 64],,binds
KKLDTFVKLSLFTER [SEQ ID NO 65],,binds
KKLDTFFKLSLFTER [SEQ ID NO 66],,binds
KKLDTFFVKLSFTER [SEQ ID NO 68],,binds
KKFFVKLSLFTER [SEQ ID NO 76],,binds
KLDTFFVKLSLFTER [SEQ ID NO 46],,binds
LDTFFVKLSLFTER [SEQ ID NO 47],,binds
DTFFVKLSLFTER [SEQ ID NO 48],,binds
TFFVKLSLFTER [SEQ ID NO 49],,binds
FFVKLSLFTER [SEQ ID NO 50],,binds
FVKLSLFTER [SEQ ID NO 51],,binds
VKLSLFTER [SEQ ID NO 52],,binds
KLSLFTER [SEQ ID NO 53],,binds
KKLDTFFVKLSLFTE [SEQ ID NO 34],,binds
FVKL,,binds
